# Reference: article PMC3936774
# Key:
# Assay in all cases: fluorescence polarization
# Ec Hfq K31W = Ec Hfq K31W (Escherichia coli, UniProt P0A6X3 1-102, K31W)
# Ec Hfq Y25W = Ec Hfq Y25W (Escherichia coli, UniProt P0A6X3 1-102, Y25W)
# Ec Hfq F11W = Ec Hfq F11W (Escherichia coli, UniProt P0A6X3 1-102, F11W)
# Sa Hfq F25W = Sa Hfq F25W (Staphylococcus aureus, UniProt A0A0H3JV59 1-77, F25W)
# Ec Hfq Q95W = Ec Hfq Q95W (Escherichia coli, UniProt P0A6X3 1-102, Q95W)
# Ec Hfq Y83W = Ec Hfq Y83W (Escherichia coli, UniProt P0A6X3 1-102, Y83W)
# Hfq WT = Hfq WT (Escherichia coli, UniProt P0A6X3 1-102)
# Ec Hfq G77W = Ec Hfq G77W (Escherichia coli, UniProt P0A6X3 1-102, G77W)
# Ec Hfq Q33W = Ec Hfq Q33W (Escherichia coli, UniProt P0A6X3 1-102, Q33W)
# Sa Hfq Q31W = Sa Hfq Q31W (Staphylococcus aureus, UniProt A0A0H3JV59 1-77, Q31W)
# Ec Hfq F39W = Ec Hfq F39W (Escherichia coli, UniProt P0A6X3 1-102, F39W)
# Ec Hfq R17W = Ec Hfq R17W (Escherichia coli, UniProt P0A6X3 1-102, R17W)
# Sa Hfq WT = Sa Hfq WT (Staphylococcus aureus, UniProt A0A0H3JV59 1-77)
binder,measurement,setting,value
UUUUUU (ssRNA) [U6 (fluorescein)],Kd,Ec Hfq K31W,1120 ± 73 nM
same,Kd,Ec Hfq Y25W,837 ± 62.5 nM
same,Kd,Ec Hfq F11W,503 ± 55.5 nM
same,Kd,Sa Hfq F25W,41.9 ± 25.1 nM
same,Kd,Ec Hfq Q95W,848 ± 289 nM
same,Kd,Ec Hfq Y83W,778 ± 254 nM
same,Kd,Hfq WT,766 ± 73.7 nM
same,Kd,Ec Hfq G77W,380 ± 93.2 nM
same,Kd,Ec Hfq Q33W,405 ± 182 nM
same,Kd,Sa Hfq Q31W,114 ± 23.2 nM
same,Kd,Ec Hfq F39W,2000 ± 400 nM
same,Kd,Ec Hfq R17W,1600 ± 80 nM
same,binding result,Sa Hfq WT,binds
